Results reported in the nanobody polyreactivity screen of Harvey et al. (2022).

Assay: yeast display, Sf9 membrane polyspecificity reagent, FACS + sequencing; frameworks hold sequencing errors
Procedure, shortened: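 Genes from sorted yeast were amplified by colony PCR, read by MiSeq 2 × 250 sequencing and filtered on CDR length. These cells carried a synthetic nanobody library in Saccharomyces cerevisiae BJ5465 and were sorted by FACS into low and high (top ~1%) gates on anti-HA and streptavidin fluorescence. Polyreactivity is labelled according to the gate of origin.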

Sequence | polyreactivity (PSR sort gate)
QVQLVESGGGLVQAGGSLRLSCAASGSTFYAYTMGWYRKAPGKERELVAGISRRGGTTYYADSVKGRFTISRDNAKNTVYLQMNSLKPEYTAVYYCAADKTKPQASEGYYAYYYWGQGTQVTVSS | low polyreactivity
QVQLVESGGGLVQAGGSLRLSCAASGSIFYYNSMGWYRKAPGKEREFVAAISARGGSTYYADSVKGRFTISRDNAKNTVYLQLNSLKPEDSAVYYCAASWGMGTYSDSTFWGGYYYWGQGTQVTVSS | low polyreactivity
QVQLVESGGGLVQAGGSLRLSCAASGSTFFYSMGWYRKAPRKERELVAAISWIDSITYYADSVKGRFTISRDNAKNTVYLQMNSLKPEDIAVYYCAAEGQNEGYDYWVQGTQVTVSS | high polyreactivity
QVQLVESGGGLVQAGGSLRLSCAASGSIFYGYTMGWYRQEPRKERELVAAIRKSGGSTNYADSVKGRFTISRDTAKNTVYLQMNSLKPEDTALYNCAADYYRRRGYYWGQGTQVTVSS | high polyreactivity
QVQLVESGGGLVQAGGSLRLSCAASGRTFRYNAMGWYRQAPGKERELVASITSGGSTNYADSVKGRFTISRDNAKNTVYLQMNSLKPEDTAVYYCAADERRPYWLHSIGSGRPFDYWGQGTQVTVSS | low polyreactivity
QVQLVESGGGLVQAGGSLRLSCAASGRNFGDYAMGWYRQAPGKERELVAAISSSGGRTYYADSVKGRFTISRDNAKNTVYLQMNSLQPEDTAVYYCAAQSKYYQYYSWGQGTQVTVSS | high polyreactivity
QVQLVESGGGLDQAGGSLRLSCAASGRTFRYYAMGWYRQAPWKESDLVATITGSGGSTYYADSVKGRFTISRDNSKNTVYLQMYSLKPEDTAVYYCNARKVRYPYRWYDYWGQGTQVTVSS | high polyreactivity
QVQLVESGGGLVQAGGSLRLSCAASGFIFKRSAMGWYRQAPGKERELVAAITLSGGDTYYADSVKGRFTISRDNAKNNVYLQMNSLKPEDTAVYYCNAPYIGENYYWGQGTQVTVSS | high polyreactivity
QVQLVESGGGLVQAGGSLRLSCAASGFTFAVYAMGWYRQAPGKERELVAAISRSGTRTYYADSVKGRFTISRDNAKNTVFLQMNSLKPEDTAVYYCAADKYRHGYDYWGQGTQVTVSS | low polyreactivity
QVQLVESGGGLVQAGGSLRLSCAASGRTFAYNAMGWYRQAPGTERELVAAITGSGGRTYYADSVKGRFTLSRDNAKYTVYLQMNSLIPEDTAVYYCAVGLPSRYDYWGQGTQVTVSS | low polyreactivity
QVQLVESGGGLVQAGGSLRLSCAASGFTFRIYAMGWYRQAPGKERELVAAITSVGSTYYADSVKGRFTISRDNAKNTVYLQMNRLKPEDTAVYYCNARATYYRFRYPYGYWGQGTQVTVSS | high polyreactivity
QVQHVESGGGLVQAGGSLRLSCAASGSILGWYAMGWYRQAPGKERELDAAITTAGDSTYYADSVKGRFTISRDNAKNTVYLPLNSLKPEDTAVYYCATRYQVRRGSGPSYDYWGQGTQVTVSS | high polyreactivity
QVQLVESGGGLVQAGGCLRLSCAASGFIFDSNAMGWYRQAPGKERELVAAISRRGGSTYYADSVKGRFTISRDNAKNTVYVHMNSLKPEYTSVYYCNAEYGSHVKYGYWGQGTQVTVSS | high polyreactivity
QVQLVESGGGLVQAGGSLRLSCAATGSIFTAYDMGWYRQAPGKERELVAAINVSAGTTYYADSVKGRFTISRDNAKNTVYLQMNSLKPEDTAVYYCATDRSPTPYTRENIYDYWGQGTQVTVSS | low polyreactivity
QVQLVESGGGLVQAGGSLRLSCAASGITFVRYAMGWYRQAPGKERELVAAISSGGSTHYADSVKGRFTISRDNAKNTVYLQMYSLKPEDTAVYYCAAQWTESSLYRFGYLGQGTQVTVSS | high polyreactivity
QVQLVESGGGLVQAGGSLRLSCAASGLNFGSNAMGWYRQAPGKERELVAAITWSGGSTYYADSVKGRFTISRDNAKNTVYLQMNSLKPEDTAVYYCAAKRWYRYYWGQGTQVTVSS | high polyreactivity
QVQLVESGGGLVQAGGSLRLSCAASGIISRVYAMGWYRLAPGKERELVAAISGSGGTTYYADSVKGRFTISRDNAKNTVYLLMNSLKPEDTAVYYCAARYKALYDYWGQGSQVTVSS | high polyreactivity
QVQLQESGGGLVQAGGSLRLSCTASGTIYSTSAMGWYRQAPGKDREFVADIASGASTNYADSVKGRFTISRDNAKNTVYLQMNSLKPEDTAVYYCAAKRIRRRYKYDYWGQGTQVTVSS | high polyreactivity
QVQLVESGGGLVQAGGSLRLSCAASGRIFAHYAMGWYRQAPGKEMELFATISLSVGSTYYADSVKGRFTISRDNAKNTVYLQMNSLKPEDTSVYYCNATGYYATSHITYDYWGQVTQVTVSS | low polyreactivity
QVQLVESGGGLVQAGGSLRLSCAASGRTSWANVMGWYRQAPGKERELVAAISSSGDSTYYADSVKGRFTISRDNAKNTVYLQMNSLKPEDTAVDYCAAGYELSDLAILDYRYDYWGQGSQVTVSS | low polyreactivity
QFQLVESGGGLVQAGGSLRLSCAASGSTFPHYTMGWYRQAPGKERELVAAIRRSAGSTYYADSVKGRFTISRDNAKNTVYLQMNSLKPEDTAVYYCNTRQRPPYLVKLNYWGQGTQVTVSS | high polyreactivity
QVQLVESGGGLVQAGGSLRLSCAASGRTFAQYAMGWYRQAPGKERELVAAITKRGGTTYYADSVKGRFTISRDNAKNTVYLQMNSLKPEDTAVYYCKAGGVVPSTYYWGQGTQVTVSS | high polyreactivity

Sequence | polyreactivity (PSR sort gate)
QVQLVESGAGLVQAGGSLRLSCAASGRILIIYAMGWYRQAPGKERELVARITYTGGRTYYADSVKGRFTISRDNAKNTVYRQMNSLKPDDTAVYYCATDWSRSDSYSHYDSWVQGTQVTVSS | low polyreactivity
RVQLQESGGGLVQAGGSLRLSCAASGTIFIRGDMGWYRQAPGKEREFVATIDTGSNTYYADSEKGRFTISRDNAKNAVSLQMICLKPGDTAVYYCVVDYQLSGRLRYWGQGTQVTLSS | low polyreactivity
QVQLVESGGGLVQAGGSLRLSCAASGRILTSNAMGWYRQAPGTEMELVAAISWSGGSTYYADSVKGRFTISRDNAKNTVYLQMNSLKPEDTAVYYCAAVSYYASDYRYDYWGQGTQVTVSS | low polyreactivity
QVQLVESGGGLVQAGGSLRLSCAASGFTFASNAMGWYRQAPWKERELDAGISRTGTTTYYADSVKGRFTISRDNAKNTVYLQMNSLKPEDTAVYYCAASKQAVKYRSQRYYYWGQGTQVTVSS | high polyreactivity
QVQLVESGGGLVQAGGSLRLTCDASGFTFPFYTMGWYRQEPGKERELVAAISASGGRTYYADSVKGRFTISRDNAKNTVYLQMNSLKPEDTGVYYCATYPTPKYFRWRGDYWGQGTQVTVSS | high polyreactivity
QVQLVESGGGLVQAGGSLRLSCAASGFTYYIYAMGWYRQAPGKERELVAAISRSAGITNYADSVKGRFTISRDNAKNTVYLQMNSLKAEDTAVYYCAAEVGYWGYQISGDYWGQGTQVTVSS | low polyreactivity
QVQLVESGGGLLQAGGSLRFSCAASGRILAGNAMGWYRQAPGTEREWVAAICSVDSTNYADSVKGRFTISRDNAKNTFYLLMYSLKPEDSAVYYCARVPQYNTYSEFDSWGQGTQVTVSS | low polyreactivity
QVQHVESGGGLVQAGVSLRLSCAATGRIFGRYVMGWYRQAPGKETELVARIRRNVGSTYYADSVKGRFTISRDNAKYPVYLQMNSLKPEDTAVYYCAAESYDTWRRYESWGQGTQVTVSS | high polyreactivity
QVQLVESRAVLVQAGGSLRLSCAASGSIFYVYAMGWYRQAPGKERELVAAISSSSDSTYADSVKGRFTISRDNAKNTVYLQMNSLKPEDTAVYYCATAWYYGIVRGGLPYDYWGHGTQVTVSS | low polyreactivity
QVQLVESGGGLVQAGGSLRLRCAASGSTSWSNPMGWYRQAPGKERELVAAITTGASTYYADSVKGRFTISRDNAKNTVYLQMNSLKPEDTAVYYCAADPWVLWSYYYWGQGTQVTVSS | low polyreactivity
QVQLVESGGGLVQAGGSLRLSCAASGRTFEFYTMGWYRQAPGKERELVAAINWSGSRTYYADSVKGRFTISRDNAKNTVYLQMNSLKPEDTAVYYCNAGEKRGLISIQGYDYWGQGTQVTVSS | high polyreactivity
QVHLVESGGGLVQAGGSLRLSCAASGYTRFYALGWYRQAPGKERELVAAISSSGGNTYYADSVKGSFTISRDNAKNTVYLQMNSLKPEDTAVYYCAKYVSYSRTLYDYWGQGTQVTVSS | high polyreactivity
QVQLVESGGGLVQAGGSLRLSCAASGFTFAYYAMGWYRQAPGKERELVATITSGGRTYYADSVKGRFTISSDNAKNTVYLQMNSLKPEDTAVYYCAATGRSGVLSSYYYWGQGTQVTVSS | high polyreactivity
QVQLVESGGGLVQAGGSLRLSCAASGFTFVYYTMGWSSQAPGKERELVAAISSSGGRTSYADSVKGRFTISRDNEKNTVYLQMNSLKPEDTAVYYCAARAYPTWRTYYYWGQGTQVTVSS | high polyreactivity
QVQLVESGGGLVQAGGSLRLSCAASGSTFWEYAMGWYRQAPGKEREFVAAISYRGGGTYYADSVKGRFTISRDNAKNTVYLQKNSLKPEDTAVYYCAARRWRGRYWGDYWGQGTQVTVSS | high polyreactivity
QVQLVESAGGLVQAGGSHRLSFAATGRIFGPNTMGWYRQAPGKERDLVATITGGGGTNYADSVKGRFRISRVNAKYTDYLQMNSLKPVDTAVYYCAADYGGAYEYGYWGQGTQVTVSS | low polyreactivity
QVQLVESGGGLVQAGGSLRLSCAASGFIFTVNAMGWYRQAPGKDRELVAAITSGGNTYYADSVKGRFTISRDNAKNTVYLQMNSLKPEDTAVYYCNAVFYTWSPYGTTVRSYGYWGQGTQVTVSS | high polyreactivity
QVQLVESGGGLVQAGGSLRLSCAASGSTFCFYAMGWYRQSPGKERELVATITIGGRTYADSVKGRFTISRDNAKNTLYLQMNSLKPEDTAVYYCNARNHVQVLFRRDYWVQGTQVTVSS | low polyreactivity
QVQLVESGGGLVQAGGSLRLSCAASGGIFARYAMGWYRQAPGKEREFVAAISFSGASTYYADSVKGRFTISRDNAKNTVYLQMNSLKPEDTAVYYCAAYWDAEGRRYTRLDYWGQGTQVTVSS | low polyreactivity
QVQLVESGGGLVQAGGSLRLSCAASGFIFYYYAMGWYRQAPGKERELVAAISWSGGRTYYADSVKGRFTISRDNAKNTVYLQMNSLKPEDTAVYYCAAVGYSKRYIYWGQGTQVTVSS | high polyreactivity
QVQLVESGGGLVQAGGSLRLSCAPSGSIFVVNAMGWFRQAPGKEREFVAAITFGGGTTYYADSVKGRITISRDNAKNTVYLQMYSLKPEDTEVYYCNTRTRGYSSYVGGYNYWGQGTQVTVSS | low polyreactivity
